Experimental data taken from IntAct's records for PubMed 29039417.

B1: BBSome complex member BBS4 (Homo sapiens), Q96RK4 (parent)
chain: MAEERVATRTQFPVSTESQKPRQKKAPEFPILEKQNWLIHLHYIRKDYEACKAVIKEQLQETQGLCEYAIYVQALIFRLEGNIQESLELFQTCAVLSPQSADNLKQVARSLFLLGKHKAAIEVYNEAAKLNQKDWEISHNLGVCYIYLKQFNKAQDQLHNALNLNRHDLTYIMLGKIHLLEGDLDKAIEVYKKAVEFSPENTELLTTLGLLYLQLGIYQKAFEHLGNALTYDPTNYKAILAAGSMMQTHGDFDVALTKYRVVACAVPESPPLWNNIGMCFFGKKKYVAAISCLKRANYLAPFDWKILYNLGLVHLTMQQYASAFHFLSAAINFQPKMGELYMLLAVALTNLEDIENAKRAYAEAVHLDKCNPLVNLNYAVLLYNQGEKKNALAQYQEMEKKVSLLKDNSSLEFDSEMVEMAQKLGAALQVGEALVWTKPVKDPKSKHQTTSTSKPASFQQPLGSNQALGQAMSSAAAYRTLPSGAGGTSQFTKPPSLPLEPEPAVESSPTETSEQIREK
partner: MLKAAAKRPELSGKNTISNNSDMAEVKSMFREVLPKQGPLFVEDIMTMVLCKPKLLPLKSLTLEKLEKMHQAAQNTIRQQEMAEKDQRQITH

Variants of: B1
Conditions: with bbip1_human BBIP1, A8MTZ0

| Variant | effect of a mutation on the interaction |
| --- | --- |
| MAEERVATRTQFPVSTESQKPRQKKAPEFPILEKQNWLIHLHYIRKDYEACKAVIKEQLQETQGLCEYAIYVQALIFRLEGNIQESLELFQTCAVLSPQSADNLKQVARSLFLLGKHKAAIEVYNEAAKLNQKDWEISHNLGVCYIYLKQFNKAQDQLHNALNLNRHDLTYIMLGKIHLLEGDLDKAIEVYKKAVEFSPENTELLTTLGLLYLQLGIYQKAFEHLGNALTYDPTNYKAILAAGSMMQTHGDFDVALTKYRVVACAVPESPPLWNNIGMCFFGKKKYVAAISCLKRAAYLAPFDWKILYNLGLVHLTMQQYASAFHFLSAAINFQPKMGELYMLLAVALTNLEDIENAKRAYAEAVHLDKCNPLVNLNYAVLLYNQGEKKNALAQYQEMEKKVSLLKDNSSLEFDSEMVEMAQKLGAALQVGEALVWTKPVKDPKSKHQTTSTSKPASFQQPLGSNQALGQAMSSAAAYRTLPSGAGGTSQFTKPPSLPLEPEPAVESSPTETSEQIREK [N297A] | with no effect |
| MAEERVATRTQFPVSTESQKPRQKKAPEFPILEKQNWLIHLHYIRKDYEACKAVIKEQLQETQGLCEYAIYVQALIFRLEGNIQESLELFQTCAVLSPQSADNLKQVARSLFLLGKHKAAIEVYNEAAKLNQKDWEISHNLGVCYIYLKQFNKAQDQLHNALNLNRHDLTYIMLGKIHLLEGDLDKAIEVYKKAVEFSPENTELLTTLGLLYLQLGIYQKAFEHLGNALTYDPTNYKAILAAGSMMQTHGDFDVALTKYRVVACAVPESPPLWNNIGMCFFGKKKYVAAISCLKRANYLAPFDWKILYNLGLVHLTMQQYASAFHFLSAAINFQPKMGELYMLLAVALTNLEDIENAKRAYAEAVHLDKCNPLVNLNYAVLLYNQGEKKNALAQYQEMEKKVSLLKDNSSLEFDSEMVEMAQALGAALQVGEALVWTKPVKDPKSKHQTTSTSKPASFQQPLGSNQALGQAMSSAAAYRTLPSGAGGTSQFTKPPSLPLEPEPAVESSPTETSEQIREK [K423A] | with no effect |
| MAEERVATRTQFPVSTESQKPRQKKAPEFPILEKQNWLIHLHYIRKDYEACKAVIKEQLQETQGLCEYAIYVQALIFRLEGNIQESLELFQTCAVLSPQSADNLKQVARSLFLLGKHKAAIEVYNEAAKLNQKDWEISHNLGVCYIYLKQFNKAQDQLHNALNLNRHDLTYIMLGKIHLLEGDLDKAIEVYKKAVEFSPENTELLTTLGLLYLQLGIYQKAFEHLGNALTYDPTNYKAILAAGSMMQTHGDFDVALTKYRVVACAVPESPPLWNNIGMCFFGKKKYVAAISCLKRANYLAPFDWKILYNLGLVHLTMQQYASAFHFLSAAINFQPKMGELYMLLAVALTNLEDIENAKRAYAEAVHLDKCNPLVNLNYAVLLYNQGEKKNAPAQYQEMEKKVSLLKDNSSLEFDSEMVEMAQKLGAALQVGEALVWTKPVKDPKSKHQTTSTSKPASFQQPLGSNQALGQAMSSAAAYRTLPSGAGGTSQFTKPPSLPLEPEPAVESSPTETSEQIREK [L392P] | disrupting interaction strength |
| MAEERVATRTQFPVSTESQKPRQKKAPEFPILEKQNWLIHLHYIRKDYEACKAVIKEQLQETQGLCEYAIYVQALIFRLEGNIQESLELFQTCAVLSPQSADNLKQVARSLFLLGKHKAAIEVYNEAAKLNQKDWEISHNLGVCYIYLKQFNKAQDQLHNALNLNRHDLTYIMLGKIHLLEGDLDKAIEVYKKAVEFSPENTELLTTLGLLYLQLGIYQKAFEHLGNALTYDPTNYKAILAAGSMMQTHGDFDVALTKYRVVACAVPESPPLWNNIGMCFFGKKKYVAEISCLKRANYLAPFDWKILYNLGLVHLTMQQYASAFHFLSAAINFQPKMGELYMLLAVALTNLEDIENAKRAYAEAVHLDKCNPLVNLNYAVLLYNQGEKKNALAQYQEMEKKVSLLKDNSSLEFDSEMVEMAQKLGAALQVGEALVWTKPVKDPKSKHQTTSTSKPASFQQPLGSNQALGQAMSSAAAYRTLPSGAGGTSQFTKPPSLPLEPEPAVESSPTETSEQIREK [A289E] | with no effect |
| MAEERVATRTQFPVSTESQKPRQKKAPEFPILEKQNWLIHLHYIRKDYEACKAVIKEQLQETQGLCEYAIYVQALIFRLEGNIQESLELFQTCAVLSPQSADNLKQVARSLFLLGKHKAAIEVYNEAAKLNQKDWEISHNLGVCYIYLKQFNKAQDQLHNALNLNRHDLTYIMLGKIHLLEGDLDKAIEVYKKAVEFSPENTELLTTLGLLYLQLGIYQKAFEHLGNALTYDPTNYKAILAAGSMMQTHGDFDVALTKYRVVACAVPESPPLWNNIGMCFFGKKKYVAAISCLKRANYLAPFDWKILYNLGLVHLTMQQYASAFHFLSAAINFQPKMGELYMLLAVALTNLEDIENAKRAYAEAVHLDKCNPLVNLNYAVLLYNQGEKKNALAQYQEMEKKVSLLKDNSSLEFDSEMVEMAQKLGAALQVGEALVWTKPVKDPKSKHQTTSTSKPASKQQPLGSNQALGQAMSSAAAYRTLPSGAGGTSQFTKPPSLPLEPEPAVESSPTETSEQIREK [F458K] | with no effect |
| MAEERVATRTQFPVSTESQKPRQKKAPEFPILEKQNWLIHLHYIRKDYEACKAVIKEQLQETQGLCEYAIYVQALIFRLEGNIQESLELFQTCAVLSPQSADNLKQVARSLFLLGKHKAAIEVYNEAAKLNQKDWEISHNLGVCYIYLKQFNKAQDQLHNALNLNRHDLTYIMLGKIHLLEGDLDKAIEVYKKAVEFSPENTELLTTLGLLYLQLGIYQKAFEHLGNALTYDPTNYKAILAAGSMMQTHGDFDVALTKYRVVACAVPESPPLWNNIGMCFFGKKKYVAAISCLKRANYLAPFDWKILYNLGLVHLTMQQYASAFHFLSAAINFQPKMGELYMLLAVALTNLEDIENAKRAYAEAVHLDKCNPLVNLNYAVLLYNQAEKKNALAQYQEMEKKVSLLKDNSSLEFDSEMVEMAQKLGAALQVGEALVWTKPVKDPKSKHQTTSTSKPASFQQPLGSNQALGQAMSSAAAYRTLPSGAGGTSQFTKPPSLPLEPEPAVESSPTETSEQIREK [G386A] | with no effect |
| MAEERVATRTQFPVSTESQKPRQKKAPEFPILEKQNWLIHLHYIRKDYEACKAVIKEQLQETQGLCEYAIYVQALIFRLEGNIQESLELFQTCAVLSPQSADNLKQVARSLFLLGKHKAAIEVYNEAAKLNQKDWEISHNLGVCYIYLKQFNKAQDQLHNALNLNRHDLTYIMLGKIHLLEGDLDKAIEVYKKAVEFSPENTELLTTLGLLYLQLGIYQKAFEHLGNALTYDPTNYKAILAAGSMMQTHGDFDVALTKYRVVACAVPESPPLWNNIGMCFFGKKKYVAAISCLKRANYLAPFDWKILYNLGLVHLTMQQYASAFHFLSAAINFQPKMGELYMLLAVALTNLEDIENAKRAYAEAVHLDKCNPLVNLNYAVLPYNQGEKKNALAQYQEMEKKVSLLKDNSSLEFDSEMVEMAQKLGAALQVGEALVWTKPVKDPKSKHQTTSTSKPASFQQPLGSNQALGQAMSSAAAYRTLPSGAGGTSQFTKPPSLPLEPEPAVESSPTETSEQIREK [L382P] | disrupting interaction strength |
| MAEERVATRTQFPVSTESQKPRQKKAPEFPILEKQNWLIHLHYIRKDYEACKAVIKEQLQETQGLCEYAIYVQALIFRLEGNIQESLELFQTCAVLSPQSADNLKQVARSLFLLGKHKAAIEVYNEAAKLNQKDWEISHNLGVCYIYLKQFNKAQDQLHNALNLNRHDLTYIMLGKIHLLEGDLDKAIEVYKKAVEFSPENTELLTTLGLLYLQLGIYQKAFEHLGNALTYDPTNYKAILAAGSMMQTHGDFDVALTKYRVVACAVPESPPLWNNIGMCFFGKKKYVAAISCLKRANYLAPFDWKILYNLGLVHLTMQQYASAFHFLSAAINFQPKMGELYMLLAVALTNLEDIENAKRAYAEAVHLDKCNPLVNLNYAVLLYNQGEKKNALAQYQEMEKKVSLLKDNSSLEFDKEMVEMAQKLGAALQVGEALVWTKPVKDPKSKHQTTSTSKPASFQQPLGSNQALGQAMSSAAAYRTLPSGAGGTSQFTKPPSLPLEPEPAVESSPTETSEQIREK [S415K] | with no effect |
| MAEERVATRTQFPVSTESQKPRQKKAPEFPILEKQNWLIHLHYIRKDYEACKAVIKEQLQETQGLCEYAIYVQALIFRLEGNIQESLELFQTCAVLSPQSADNLKQVARSLFLLGKHKAAIEVYNEAAKLNQKDWEISHNLGVCYIYLKQFNKAQDQLHNALNLNRHDLTYIMLGKIHLLEGDLDKAIEVYKKAVEFSPENTELLTTLGLLYLQLGIYQKAFEHLGNALTYDPTNYKAILAAGSMMQTHGDFDVALTKYRVVACAVPESPPLWNNIGACFFGKKKYVAAISCLKRANYLAPFDWKILYNLGLVHLTMQQYASAFHFLSAAINFQPKMGELYMLLAVALTNLEDIENAKRAYAEAVHLDKCNPLVNLNYAVLLYNQGEKKNALAQYQEMEKKVSLLKDNSSLEFDSEMVEMAQKLGAALQVGEALVWTKPVKDPKSKHQTTSTSKPASFQQPLGSNQALGQAMSSAAAYRTLPSGAGGTSQFTKPPSLPLEPEPAVESSPTETSEQIREK [M278A] | with no effect |
| MAEERVATRTQFPVSTESQKPRQKKAPEFPILEKQNWLIHLHYIRKDYEACKAVIKEQLQETQGLCEYAIYVQALIFRLEGNIQESLELFQTCAVLSPQSADNLKQVARSLFLLGKHKAAIEVYNEAAKLNQKDWEISHNLGVCYIYLKQFNKAQDQLHNALNLNRHDLTYIMLGKIHLLEGDLDKAIEVYKKAVEFSPENTELLTTLGLLYLQLGIYQKAFEHLGNALTYDPTNYKAILAAGSMMQTHGDFDVALTKYRVVACAVPESPPLWNNIGMCFFGKKKYVAAISCLKRANYLAPFDWKILYNLGLVHLTMQQYASAFHFLSAAINFQPKMGELYMLLAVALANLEDIENAKRAYAEAVHLDKCNPLVNLNYAVLLYNQGEKKNALAQYQEMEKKVSLLKDNSSLEFDSEMVEMAQKLGAALQVGEALVWTKPVKDPKSKHQTTSTSKPASFQQPLGSNQALGQAMSSAAAYRTLPSGAGGTSQFTKPPSLPLEPEPAVESSPTETSEQIREK [T349A] | with no effect |
| MAEERVATRTQFPVSTESQKPRQKKAPEFPILEKQNWLIHLHYIRKDYEACKAVIKEQLQETQGLCEYAIYVQALIFRLEGNIQESLELFQTCAVLSPQSADNLKQVARSLFLLGKHKAAIEVYNEAAKLNQKDWEISHNLGVCYIYLKQFNKAQDQLHNALNLNRHDLTYIMLGKIHLLEGDLDKAIEVYKKAVEFSPENTELLTTLGLLYLQLGIYQKAFEHLGNALTYDPTNYKAILAAGSMMQTHGDFDVALTKYRVVACAVPESPPLWNNIGMCFFGKKKYVAAISCLKRANYLAPFDWKILYNLGLVHLTMQQYASAFHFLSAAINFQPKMGELYMLLAVALTNLEDIENAKRAYAEAVHLDKCNPLVNLNYAVLLYNQGEKKNALAQYQEMEKKVSLLKDNSSLEFDSEMVEMAQKLGAALQVGEALVWTKPVKDPKSKHQTTSTSKPASFQQPLGSNQALGQAMESAAAYRTLPSGAGGTSQFTKPPSLPLEPEPAVESSPTETSEQIREK [S473E] | with no effect |
| MAEERVATRTQFPVSTESQKPRQKKAPEFPILEKQNWLIHLHYIRKDYEACKAVIKEQLQETQGLCEYAIYVQALIFRLEGNIQESLELFQTCAVLSPQSADNLKQVARSLFLLGKHKAAIEVYNEAAKLNQKDWEISHNLGVCYIYLKQFNKAQDQLHNALNLNRHDLTYIMLGKIHLLEGDLDKAIEVYKKAVEFSPENTELLTTLGLLYLQLGIYQKAFEHLGNALTYDPTNYKAILAAGSMMQTHGDFDVALTKYRVVACAVPESPPLWNNIGMCFFGKKKYVAAISCLKRANYLAPFDWKILYNLGLVHLTMQQYASAFHALSAAINFQPKMGELYMLLAVALTNLEDIENAKRAYAEAVHLDKCNPLVNLNYAVLLYNQGEKKNALAQYQEMEKKVSLLKDNSSLEFDSEMVEMAQKLGAALQVGEALVWTKPVKDPKSKHQTTSTSKPASFQQPLGSNQALGQAMSSAAAYRTLPSGAGGTSQFTKPPSLPLEPEPAVESSPTETSEQIREK [F326A] | with no effect |
